Legend:
Assay in all cases: cell-based or functional assay
Met (h) (human) = Met (h) (human) (UniProt P08581)
FGFR2 (h) (human) = FGFR2 (h) (human) (UniProt P21802)
IKKβ (h) (human) = biological target: T1, IKKβ (h) (human) (UniProt O14920)
T1 sequence (looked up): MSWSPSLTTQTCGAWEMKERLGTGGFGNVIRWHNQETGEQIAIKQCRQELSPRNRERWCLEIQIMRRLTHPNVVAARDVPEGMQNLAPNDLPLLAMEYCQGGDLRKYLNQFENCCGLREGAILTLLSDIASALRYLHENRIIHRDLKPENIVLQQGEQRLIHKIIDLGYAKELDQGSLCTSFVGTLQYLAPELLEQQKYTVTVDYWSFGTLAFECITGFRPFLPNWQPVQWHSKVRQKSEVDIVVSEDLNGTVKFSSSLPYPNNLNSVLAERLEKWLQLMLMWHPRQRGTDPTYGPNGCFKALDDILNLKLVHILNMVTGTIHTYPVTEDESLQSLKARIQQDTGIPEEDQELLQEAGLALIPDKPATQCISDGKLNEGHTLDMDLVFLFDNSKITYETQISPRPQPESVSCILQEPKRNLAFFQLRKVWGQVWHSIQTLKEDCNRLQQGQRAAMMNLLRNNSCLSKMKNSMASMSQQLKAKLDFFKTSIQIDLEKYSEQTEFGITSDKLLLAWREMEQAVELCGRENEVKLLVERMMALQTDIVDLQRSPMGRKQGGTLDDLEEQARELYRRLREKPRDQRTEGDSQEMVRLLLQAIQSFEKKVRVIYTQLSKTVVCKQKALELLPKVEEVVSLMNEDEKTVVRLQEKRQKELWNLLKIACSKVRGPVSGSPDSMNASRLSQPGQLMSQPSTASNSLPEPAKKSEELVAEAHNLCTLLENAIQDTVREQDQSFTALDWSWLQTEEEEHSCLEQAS

DRAK1 (h) (human) = biological target: T2, DRAK1 (h) (human) (UniProt Q9UEE5)
T2 sequence (looked up): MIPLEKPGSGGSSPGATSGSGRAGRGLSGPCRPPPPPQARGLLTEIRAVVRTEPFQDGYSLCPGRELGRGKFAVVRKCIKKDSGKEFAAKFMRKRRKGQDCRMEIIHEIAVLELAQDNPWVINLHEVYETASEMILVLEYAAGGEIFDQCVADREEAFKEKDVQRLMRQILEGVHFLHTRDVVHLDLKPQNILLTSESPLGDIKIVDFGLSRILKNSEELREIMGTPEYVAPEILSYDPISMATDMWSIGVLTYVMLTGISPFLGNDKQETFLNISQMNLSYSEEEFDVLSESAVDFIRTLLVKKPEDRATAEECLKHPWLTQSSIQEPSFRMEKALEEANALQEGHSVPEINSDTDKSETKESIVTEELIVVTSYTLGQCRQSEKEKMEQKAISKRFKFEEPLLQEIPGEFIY

CDK2/cyclinA (h) (human) = CDK2/cyclinA (h) (human) (UniProt P24941)
BRK (h) (human) = BRK (h) (human) (UniProt Q13882)
PKG1α (h) (human) = PKG1α (h) (human) (UniProt Q13976)
Fms (h) (human) = biological target: T3, Fms (h) (human) (UniProt P07333)
T3 sequence (looked up): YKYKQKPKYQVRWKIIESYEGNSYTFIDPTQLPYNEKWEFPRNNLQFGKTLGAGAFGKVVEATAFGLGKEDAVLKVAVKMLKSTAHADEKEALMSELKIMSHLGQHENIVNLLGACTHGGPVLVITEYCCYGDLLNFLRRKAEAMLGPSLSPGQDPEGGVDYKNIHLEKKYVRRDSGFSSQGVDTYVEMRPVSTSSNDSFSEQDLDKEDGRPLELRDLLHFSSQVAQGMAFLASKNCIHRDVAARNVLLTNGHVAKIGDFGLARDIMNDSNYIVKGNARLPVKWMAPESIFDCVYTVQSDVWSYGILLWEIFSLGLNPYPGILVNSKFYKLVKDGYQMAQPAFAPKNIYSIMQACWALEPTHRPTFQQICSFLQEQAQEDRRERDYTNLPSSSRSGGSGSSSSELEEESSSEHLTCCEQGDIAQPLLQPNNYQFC

Fes (h) (human) = Fes (h) (human) (UniProt P07332)
GSK3β (h) (human) = GSK3β (h) (human) (UniProt P49841)
MKK7β (h) (human) = MKK7β (h) (human) (UniProt O14733)
EphB4 (h) (human) = EphB4 (h) (human) (UniProt P54760)
Chain of EphB4 (h) (human) (P54760 561-987 limits assumed): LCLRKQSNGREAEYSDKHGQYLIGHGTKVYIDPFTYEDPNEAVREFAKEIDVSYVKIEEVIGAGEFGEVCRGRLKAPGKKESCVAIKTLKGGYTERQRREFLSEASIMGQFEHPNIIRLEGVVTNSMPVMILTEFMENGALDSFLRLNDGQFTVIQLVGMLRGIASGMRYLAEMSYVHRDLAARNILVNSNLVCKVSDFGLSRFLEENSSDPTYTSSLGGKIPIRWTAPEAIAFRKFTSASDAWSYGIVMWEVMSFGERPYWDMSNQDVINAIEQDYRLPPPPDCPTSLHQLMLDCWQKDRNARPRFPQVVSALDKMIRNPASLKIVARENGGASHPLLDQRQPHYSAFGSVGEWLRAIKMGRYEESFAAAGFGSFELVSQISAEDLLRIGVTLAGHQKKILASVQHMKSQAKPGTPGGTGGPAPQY

IRAK4 (h) (human) = biological target: T4, IRAK4 (h) (human) (UniProt Q9NWZ3)
T4 sequence (looked up): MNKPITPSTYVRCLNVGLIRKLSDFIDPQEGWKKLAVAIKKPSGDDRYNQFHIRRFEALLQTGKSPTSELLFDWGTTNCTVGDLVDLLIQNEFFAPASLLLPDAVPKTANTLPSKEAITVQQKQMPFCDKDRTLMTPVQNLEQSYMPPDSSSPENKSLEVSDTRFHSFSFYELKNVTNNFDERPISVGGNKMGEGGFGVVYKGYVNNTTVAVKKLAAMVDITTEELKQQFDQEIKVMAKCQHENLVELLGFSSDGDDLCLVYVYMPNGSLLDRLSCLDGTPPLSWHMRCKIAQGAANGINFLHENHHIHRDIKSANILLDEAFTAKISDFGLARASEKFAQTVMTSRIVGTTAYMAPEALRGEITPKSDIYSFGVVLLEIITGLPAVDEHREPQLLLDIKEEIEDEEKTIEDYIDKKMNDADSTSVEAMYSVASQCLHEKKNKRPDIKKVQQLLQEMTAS

Chain of Met (h) (human) (P08581 956-1390 limits assumed): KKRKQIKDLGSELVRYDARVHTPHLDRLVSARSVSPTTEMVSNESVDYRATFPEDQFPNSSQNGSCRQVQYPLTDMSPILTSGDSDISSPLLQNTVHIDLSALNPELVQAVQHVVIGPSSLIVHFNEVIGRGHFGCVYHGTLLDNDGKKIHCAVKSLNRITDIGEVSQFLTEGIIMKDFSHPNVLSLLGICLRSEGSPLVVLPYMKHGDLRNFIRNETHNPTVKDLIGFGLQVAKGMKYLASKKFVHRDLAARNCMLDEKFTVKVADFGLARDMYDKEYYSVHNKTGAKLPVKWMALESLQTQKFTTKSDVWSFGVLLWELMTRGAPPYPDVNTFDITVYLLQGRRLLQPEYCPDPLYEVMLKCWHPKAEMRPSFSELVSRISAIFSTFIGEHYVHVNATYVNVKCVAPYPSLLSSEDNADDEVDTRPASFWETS
Chain of FGFR2 (h) (human) (P21802 456-770 limits assumed): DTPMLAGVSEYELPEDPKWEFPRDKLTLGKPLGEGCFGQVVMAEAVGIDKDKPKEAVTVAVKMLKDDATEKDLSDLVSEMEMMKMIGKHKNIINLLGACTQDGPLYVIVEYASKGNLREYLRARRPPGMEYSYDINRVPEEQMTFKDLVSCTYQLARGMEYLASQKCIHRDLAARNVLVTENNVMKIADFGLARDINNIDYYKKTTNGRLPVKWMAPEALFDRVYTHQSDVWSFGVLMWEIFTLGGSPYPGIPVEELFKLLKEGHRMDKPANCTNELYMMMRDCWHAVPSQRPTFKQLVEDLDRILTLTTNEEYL

% activity at 100 µM (Met (h) (human)): 65%
% activity at 100 µM (FGFR2 (h) (human)): 14%
% activity at 100 µM (IKKβ (h) (human)): 84%
% activity at 100 µM (DRAK1 (h) (human)): 14%
% activity at 100 µM (CDK2/cyclinA (h) (human)): 86%
% activity at 100 µM (BRK (h) (human)): 35%
% activity at 100 µM (PKG1α (h) (human)): 64%
% activity at 100 µM (Fms (h) (human)): 45%
% activity at 100 µM (Fes (h) (human)): 20%
% activity at 100 µM (GSK3β (h) (human)): 205%
% activity at 100 µM (MKK7β (h) (human)): 100%
% activity at 100 µM (EphB4 (h) (human)): 44%
% activity at 100 µM (IRAK4 (h) (human)): 59%
Substance: MMI-0300 (peptide)

— US20160136234A1
